Laboratory results taken from patent US8895526B2, “Identification of RNAI targets and use of RNAI for rational therapy of chemotherapy-resistant leukemia and other cancers” (Cold Spring Harbor Laboratory, priority 2009, dated 2014).

Tests used:
[1] = tested on: tet-on competent MLL/AF9+Nras AML; assay: Pooled negative selection RNAi screening (deep sequencing); format: cell-based, mouse; conditions: deep sequencing reads, On Dox compared to T0
Outline: (§1)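 A pool of 1230 tet-regulated shRNAs (TRMPV-type) was retrovirally transduced at mostly single copy and ~1000-fold representation into tet-on MLL/AF9+Nras AML cells or immortalized murine embryonic fibroblasts, then cultured on or off doxycycline. shRNA-expressing cells were FACS-sorted, and shRNA representation was quantified by PCR and deep sequencing of genomic DNA, with depletion on dox compared against t0 and off dox.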

[2] = tested on: immortalized murine embryonic fibroblasts (Mef); assay: as above; format: cell-based; conditions: deep sequencing reads, on dox compared to initial representation
Outline: as §1

B1: Rpa3.561: shRNA, SEQ ID NO: 176 (also SEQ ID NO: 61) (nucleic acid)
chain: TGCTGTTGACAGTGAGCGCAAAAGTGATACTTCAATATATTAGTGAAGCCACAGATGTAATATATTGAAGTATCACTTTTATGCCTACTGCCTCGGA
Fold depletion in AML [1]: 8.81 Fold
Fold depletion in Mef [2]: 10.63 Fold

B2: Mcl1.1334: shRNA, SEQ ID NO: 139 (also SEQ ID NO: 43) (nucleic acid)
chain: TGCTGTTGACAGTGAGCGAAAGAGTCACTGTCTGAATGAATAGTGAAGCCACAGATGTATTCATTCAGACAGTGACTCTTCTGCCTACTGCCTCGGA
Fold depletion in AML [1]: 104.03 Fold
Fold depletion in Mef [2]: 3.00 Fold

B3: Kit.4813: neutral control shRNA, SEQ ID NO: 197 (nucleic acid)
chain: TGCTGTTGACAGTGAGCGATTGGATATTCTTGAAAGTTTATAGTGAAGCCACAGATGTATAAACTTTCAAGAATATCCAAGTGCCTACTGCCTCGGA
Fold depletion in AML [1]: 0.81 Fold
Fold depletion in Mef [2]: 0.84 Fold

B4: Ptgs2.3711: neutral control shRNA, SEQ ID NO: 212 (nucleic acid)
chain: TGCTGTTGACAGTGAGCGCAACGTTCATGGATAAATTCTATAGTGAAGCCACAGATGTATAGAATTTATCCATGAACGTTATGCCTACTGCCTCGGA
Fold depletion in AML [1]: 1.38 Fold
Fold depletion in Mef [2]: 1.46 Fold

B5: Myc.2105: shRNA, SEQ ID NO: 148 (nucleic acid)
chain: TGCTGTTGACAGTGAGCGCCTGCCTCAAACTTAAATAGTATAGTGAAGCCACAGATGTATACTATTTAAGTTTGAGGCAGTTGCCTACTGCCTCGGA
Fold depletion in AML [1]: 9.19 Fold
Fold depletion in Mef [2]: 11.70 Fold

B6: Renilla.713: neutral control shRNA, SEQ ID NO: 213 (nucleic acid)
chain: TGCTGTTGACAGTGAGCGCAGGAATTATAATGCTTATCTATAGTGAAGCCACAGATGTATAGATAAGCATTATAATTCCTATGCCTACTGCCTCGGA
Fold depletion in AML [1]: 1.29 Fold
Fold depletion in Mef [2]: 1.02 Fold

B7: Myc.1888: shRNA, SEQ ID NO: 146 (nucleic acid)
chain: TGCTGTTGACAGTGAGCGAGAAACGACGAGAACAGTTGAATAGTGAAGCCACAGATGTATTCAACTGTTCTCGTCGTTTCCTGCCTACTGCCTCGGA
Fold depletion in AML [1]: 8.48 Fold
Fold depletion in Mef [2]: 3.83 Fold

B8: Mn1.5864: neutral control shRNA, SEQ ID NO: 208 (nucleic acid)
chain: TGCTGTTGACAGTGAGCGCATCGCTATTGCACATGTATAATAGTGAAGCCACAGATGTATTATACATGTGCAATAGCGATTTGCCTACTGCCTCGGA
Fold depletion in AML [1]: 0.61 Fold
Fold depletion in Mef [2]: 1.09 Fold

B9: Map2k1.1200: neutral control shRNA, SEQ ID NO: 203 (nucleic acid)
chain: TGCTGTTGACAGTGAGCGAGCCTCTCAGCTCATATGGAATTAGTGAAGCCACAGATGTAATTCCATATGAGCTGAGAGGCCTGCCTACTGCCTCGGA
Fold depletion in AML [1]: 2.26 Fold
Fold depletion in Mef [2]: 1.24 Fold

B10: Ptgs2.2058: neutral control shRNA, SEQ ID NO: 210 (nucleic acid)
chain: TGCTGTTGACAGTGAGCGCCCGGTGTTTGTCCTTTAAATATAGTGAAGCCACAGATGTATATTTAAAGGACAAACACCGGATGCCTACTGCCTCGGA
Fold depletion in AML [1]: 1.78 Fold
Fold depletion in Mef [2]: 1.27 Fold

B11: Lin28.2270: neutral control shRNA, SEQ ID NO: 200 (nucleic acid)
chain: TGCTGTTGACAGTGAGCGCAACGGGACAAATGCAATAGAATAGTGAAGCCACAGATGTATTCTATTGCATTTGTCCCGTTTTGCCTACTGCCTCGGA
Fold depletion in AML [1]: 0.22 Fold
Fold depletion in Mef [2]: 1.10 Fold

B12: Bcl2.906: shRNA, SEQ ID NO: 98 (nucleic acid)
chain: TGCTGTTGACAGTGAGCGCGCACAGGAATTTTGTTTAATATAGTGAAGCCACAGATGTATATTAAACAAAATTCCTGTGCATGCCTACTGCCTCGGA
Fold depletion in AML [1]: 12.28 Fold
Fold depletion in Mef [2]: 0.98 Fold

B13: Bcl2.1422: shRNA, SEQ ID NO: 95 (also SEQ ID NO: 41) (nucleic acid)
chain: TGCTGTTGACAGTGAGCGACCGGGAGAACAGGGTATGATATAGTGAAGCCACAGATGTATATCATACCCTGTTCTCCCGGCTGCCTACTGCCTCGGA
Fold depletion in AML [1]: 1,686.19 Fold
Fold depletion in Mef [2]: 2.71 Fold

B14: Pcna.1186: shRNA, SEQ ID NO: 159 (nucleic acid)
chain: TGCTGTTGACAGTGAGCGAATCAATGATCTTGACGCTAAATAGTGAAGCCACAGATGTATTTAGCGTCAAGATCATTGATGTGCCTACTGCCTCGGA
Fold depletion in AML [1]: 51.94 Fold
Fold depletion in Mef [2]: 11.42 Fold

B15: Rpa1.1620: shRNA, SEQ ID NO: 175 (also SEQ ID NO: 57) (nucleic acid)
chain: TGCTGTTGACAGTGAGCGCCCGCATGATCTTATCGGCAAATAGTGAAGCCACAGATGTATTTGCCGATAAGATCATGCGGTTGCCTACTGCCTCGGA
Fold depletion in AML [1]: 2,891.47 Fold
Fold depletion in Mef [2]: 10.23 Fold

B16: Pcna.566: shRNA, SEQ ID NO: 160 (nucleic acid)
chain: TGCTGTTGACAGTGAGCGATCGGGTGAATTTGCACGTATATAGTGAAGCCACAGATGTATATACGTGCAAATTCACCCGACTGCCTACTGCCTCGGA
Fold depletion in AML [1]: 9.89 Fold
Fold depletion in Mef [2]: 6.15 Fold

B17: Myc.1891: shRNA, SEQ ID NO: 147 (nucleic acid)
chain: TGCTGTTGACAGTGAGCGCACGACGAGAACAGTTGAAACATAGTGAAGCCACAGATGTATGTTTCAACTGTTCTCGTCGTTTGCCTACTGCCTCGGA
Fold depletion in AML [1]: 9.05 Fold
Fold depletion in Mef [2]: 4.62 Fold

B18: Trp53.1224: neutral control shRNA, SEQ ID NO: 214 (nucleic acid)
chain: TGCTGTTGACAGTGAGCGCCCACTACAAGTACATGTGTAATAGTGAAGCCACAGATGTATTACACATGTACTTGTAGTGGATGCCTACTGCCTCGGA
Fold depletion in AML [1]: 0.10 Fold
Fold depletion in Mef [2]: 0.84 Fold

B19: Kit.2021: neutral control shRNA, SEQ ID NO: 195 (nucleic acid)
chain: TGCTGTTGACAGTGAGCGACACCCTGGTCATTACAGAATATAGTGAAGCCACAGATGTATATTCTGTAATGACCAGGGTGGTGCCTACTGCCTCGGA
Fold depletion in AML [1]: 1.92 Fold
Fold depletion in Mef [2]: 1.61 Fold

B20: Ptgs2.1082: neutral control shRNA, SEQ ID NO: 209 (nucleic acid)
chain: TGCTGTTGACAGTGAGCGCCAAGATAGTGATCGAAGACTATAGTGAAGCCACAGATGTATAGTCTTCGATCACTATCTTGATGCCTACTGCCTCGGA
Fold depletion in AML [1]: 0.51 Fold
Fold depletion in Mef [2]: 0.51 Fold

B21: Bcl2.2169: shRNA, SEQ ID NO: 96 (also SEQ ID NO: 42) (nucleic acid)
chain: TGCTGTTGACAGTGAGCGACAGTAGAAATTATATGCATTATAGTGAAGCCACAGATGTATAATGCATATAATTTCTACTGCTGCCTACTGCCTCGGA
Fold depletion in AML [1]: 12.61 Fold
Fold depletion in Mef [2]: 1.62 Fold

B22: Lin28.2180: neutral control shRNA, SEQ ID NO: 198 (nucleic acid)
chain: TGCTGTTGACAGTGAGCGCAGCGTGATGGTTGATAGCTAATAGTGAAGCCACAGATGTATTAGCTATCAACCATCACGCTATGCCTACTGCCTCGGA
Fold depletion in AML [1]: 1.15 Fold
Fold depletion in Mef [2]: 0.80 Fold

B23: Lin28.2430: neutral control shRNA, SEQ ID NO: 201 (nucleic acid)
chain: TGCTGTTGACAGTGAGCGATGGCCTAGTTGTGTAAATATATAGTGAAGCCACAGATGTATATATTTACACAACTAGGCCACTGCCTACTGCCTCGGA
Fold depletion in AML [1]: 1.37 Fold
Fold depletion in Mef [2]: 0.89 Fold

B24: Map2k1.2337: neutral control shRNA, SEQ ID NO: 204 (nucleic acid)
chain: TGCTGTTGACAGTGAGCGCCAAGATGTTTATCAAATCTAATAGTGAAGCCACAGATGTATTAGATTTGATAAACATCTTGATGCCTACTGCCTCGGA
Fold depletion in AML [1]: 0.24 Fold
Fold depletion in Mef [2]: 0.68 Fold

B25: Mn1.2545: neutral control shRNA, SEQ ID NO: 206 (nucleic acid)
chain: TGCTGTTGACAGTGAGCGCCAGCGCGGTTGCAGCCGGTAATAGTGAAGCCACAGATGTATTACCGGCTGCAACCGCGCTGTTGCCTACTGCCTCGGA
Fold depletion in AML [1]: 0.81 Fold
Fold depletion in Mef [2]: 0.29 Fold

B26: Lin28.2186: neutral control shRNA, SEQ ID NO: 199 (nucleic acid)
chain: TGCTGTTGACAGTGAGCGAATGGTTGATAGCTAAAGGAAATAGTGAAGCCACAGATGTATTTCCTTTAGCTATCAACCATCTGCCTACTGCCTCGGA
Fold depletion in AML [1]: 1.43 Fold
Fold depletion in Mef [2]: 1.55 Fold

B27: Mn1.5760: neutral control shRNA, SEQ ID NO: 207 (nucleic acid)
chain: TGCTGTTGACAGTGAGCGCTTGGTTTAGCAGGAAGAATAATAGTGAAGCCACAGATGTATTATTCTTCCTGCTAAACCAAATGCCTACTGCCTCGGA
Fold depletion in AML [1]: 0.38 Fold
Fold depletion in Mef [2]: 0.91 Fold

B28: Mn1.1403: neutral control shRNA, SEQ ID NO: 205 (nucleic acid)
chain: TGCTGTTGACAGTGAGCGCAACGGTACCCTAGACAACCAATAGTGAAGCCACAGATGTATTGGTTGTCTAGGGTACCGTTATGCCTACTGCCTCGGA
Fold depletion in AML [1]: 1.94 Fold
Fold depletion in Mef [2]: 0.77 Fold

B29: Ptgs2.284: neutral control shRNA, SEQ ID NO: 211 (nucleic acid)
chain: TGCTGTTGACAGTGAGCGAAAGAATCAAATTACTGCTGAATAGTGAAGCCACAGATGTATTCAGCAGTAATTTGATTCTTGTGCCTACTGCCTCGGA
Fold depletion in AML [1]: 0.34 Fold
Fold depletion in Mef [2]: 1.21 Fold

B30: Kit.221: neutral control shRNA, SEQ ID NO: 196 (nucleic acid)
chain: TGCTGTTGACAGTGAGCGCCAGATGGACTTTCAAGACCTATAGTGAAGCCACAGATGTATAGGTCTTGAAAGTCCATCTGATGCCTACTGCCTCGGA
Fold depletion in AML [1]: 1.19 Fold
Fold depletion in Mef [2]: 0.69 Fold

B31: Luciferase.1309: neutral control shRNA, SEQ ID NO: 202 (nucleic acid)
chain: TGCTGTTGACAGTGAGCGCCCGCCTGAAGTCTCTGATTAATAGTGAAGCCACAGATGTATTAATCAGAGACTTCAGGCGGTTGCCTACTGCCTCGGA
Fold depletion in AML [1]: 1.22 Fold
Fold depletion in Mef [2]: 0.52 Fold
